Laboratory results from patent US20240317857A1 (AMPSOURCE BIOPHARMA SHANGHAI, published 2024).
Where a chain is given by its changes, count along the chain named.

T1: His-labeled cynomolgus monkey CD3E (purchased from Acro Biosystems) (cynomolgus monkey, UniProt Q95LI5 22-117)
T1 construct: also called Cynomolgus monkey CD3E antigen; not shown: His label
T1 sequence (looked up): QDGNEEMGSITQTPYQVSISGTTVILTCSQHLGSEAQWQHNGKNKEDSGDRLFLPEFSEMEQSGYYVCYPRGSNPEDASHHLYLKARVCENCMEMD

B1: humanized antibody AB614 (antibody, human IgG4 S228P, kappa, V domains shown)
VH: EVQLLESGGGLVQPGGSLKLSCAASGFTFNTYAMNWVRQAPGKGLEWVGRIRSKINNYATYYADSVKDRFTISRDDSKNTAYLQMNNLKTEDTAMYYCVRHDNFYGSTYSWFADWGQGTLVTVSS
VL: ELVVTQEPSLTVSPGGTVTLTCRSSTGVVTTSNYANWVQEKPDHLFTGLIGATNYRAPGTPARFSGSLLGGKAALTLSGVQPEDEAIYFCVLWYSNHWVFGGGTKLTVLR
notes: Humanized from AP591 CDRs
B2: murine monoclonal antibody AP191 (antibody, mouse IgG1, V domains shown)
VH: QVQLQQSGPELVKPGASMKMSCKASGYTFTSYYIHWVKQRPGQGLEWIGWIYPGDGSTKFNEKFRGKTSLTADKSSNTAYMFLSSLTSEDSAIYFCARDGYSLYYFEFWGHGTTLTVSS
VL: DIVMSQSPSSLAVSAGETVTMSCKSSQSLLNSRTRKTYLAWYQQKPGQSPKLLIYWASTRDSGVPDRFTGSGSGTDFTLTISSVQAEDLAVYYCVQSYTLRTFGGGTKLEIK
B3: murine monoclonal antibody AP591 (antibody, mouse IgG1, V domains shown)
VH: B1 VH with L5V, G15K, K67R, K78Q, N79S, T80M, A81L, N86S, S125A
VL: AVVTQESALTTSPGETVTLTCRSSTGVVTTSNYANWVQEKPDHLFTGLIGATNYRVPGVPARFSGSLIGDKAALTITGAQTEDEAIYFCVLWYSNHWVFGGGTKLTVL
B4: murine monoclonal antibody AP831 (antibody, mouse IgG1, V domains shown)
VH: QVQLQQSGPELVKPGTSVKMSCKASGYTFTNNYIHWVKEKPGEGLEWIGWIYPGDGTTKYNEKFKGKTTLASDKSSNTVYMFLSSLTSEDSAIYFCTRNNNYYFDYWGQGTTLTVSS
VL: B2 VL with T18K, S22N, L30F, T37N, D61E, V91L, V95K, Y98F, T99I
B5: humanized antibody AB611 (antibody, human IgG4 S228P, kappa, V domains shown)
VH: EVQLVQSGAEVKKPGSSVKVSCKASGYTFTNNYIHWVKEKPGQGLEWIGWIYPGDGTTKYNEKFKGKTTLASDKSTNTAYMELSSLRSEDTAIYFCTRNNNYYFDYWGQGTTVTVSS
VL: DIVMTQSPDSLAVSLGERATMNCKSSQSLFNSRTRKNYLAWYQQKPGESPKLLIYWASTRESGVPDRFSGSGSGTDFTLTISSLQAEDVAVYYCKQSFILRTFGGGTKVEIKR
notes: Humanized from AP831 CDRs
B6: humanized antibody AB616 (antibody, V domains shown)
VH: B1 VH with N30D
VL: ELVVTQEPSLTVSPGGTVTLTCRSSTGVVTTSNYANWVQEKPDHLFTGLIGATNYRAPGTPARFSGSLLGGKAALTLSGVQPEDEAIYFCVLWYSNHWVFGGGTKLTVL
B7: humanized antibody AB615 (antibody, V domains shown)
VH: B1 VH with T28D
VL: B6 VL
B8: humanized antibody AB617 (antibody, V domains shown)
VH: B1 VH with T31D
VL: B6 VL
B9: humanized antibody AB618 (antibody, V domains shown)
VH: B1 VH
VL: B6 VL with A52D
B10: humanized antibody AB619 (antibody, V domains shown)
VH: B1 VH
VL: B6 VL with N54D
B11: humanized antibody AB620 (antibody, V domains shown)
VH: B1 VH with N30D
VL: B6 VL with N54D
B12: humanized antibody AB621 (antibody, V domains shown)
VH: B1 VH
VL: B6 VL with Y34H
B13: humanized antibody AB622 (antibody, V domains shown)
VH: B1 VH
VL: B6 VL with Y55H
B14: humanized antibody AB623 (antibody, V domains shown)
VH: B1 VH with F104H
VL: B6 VL
B15: humanized antibody AB624 (antibody, V domains shown)
VH: B1 VH with Y105H
VL: B6 VL
B16: humanized antibody AB625 (antibody, V domains shown)
VH: B1 VH with Y109H
VL: B6 VL
B17: humanized antibody AB626 (antibody, V domains shown)
VH: B1 VH with W111H
VL: B6 VL
B18: humanized antibody AB627 (antibody, V domains shown)
VH: B1 VH with F112H
VL: B6 VL

Key:
[1] = target: T2, human CD3 on human T cells (human, UniProt P07766 23-207); test: flow cytometry on human primary T cells
T2 construct: whole, on cells; also called human primary T cells; NFAT-Jurkat cells

His-labeled human CD3E [2] = target: T3, His-labeled human CD3E (human, UniProt P07766 23-126); test: ELISA, plate coated with His-labeled human CD3E
T3 construct: also called human CD3E antigen; antigen CD3E; not shown: His label
Experimental: (§1) A microtiter plate was coated with 0.1 μg/mL His-labeled human or cynomolgus monkey CD3E (purchased from Acro Biosystems) (100 μL/well) overnight at 4° C. The coating solution was discarded, and the microtiter plate was blocked with 1% PBSB (200 μL/well), incubated for 1 h at 37° C. and washed with PBS containing 0.05% Tween-20. The diluted CD3 humanized antibodies AB611 and AB614 with a series of concentrations were added (100 μL/well), incubated for 1 h at 37° C. and washed with 0.05% PBST, and HRP-labeled goat anti-human IgG (H+L) (Jackson Laboratory) was added as the detection antibody and incubated for 1 h at 37° C. The wells were washed three times with 0.05% PBST, added with TMB (100 μL/well) and developed at room temperature for 5 min. 0.2 M H₂SO₄ was added to terminate the reaction, 50 μL/well. Absorption values were read by a microplate reader at double wavelengths 450 nm/620 nm. Plotting was performed by software GraphPad Prism 6 with OD 450 nm/620 nm as the Y-axis and an antibody concentration as the X-axis.

[3] = target: T2, human CD3 on human T cells; test: cell-based or functional assay
[4] = target: T1, His-labeled cynomolgus monkey CD3E …; test: ELISA, plate coated with His-labeled cynomolgus monkey CD3E
Experimental: as §1

His-labeled human CD3E [5] = target: T3, His-labeled human CD3E; test: BLI (Octet), method of Example 3: His-labeled human CD3E on Ni-NTA sensors
Experimental: (§2) The binding affinity constants of the purified murine monoclonal antibodies to antigen CD3E were determined by […] (BLI) with the ForteBio Octet RED&QK system from PALL Corporation. Concentration gradients of a multichannel parallel quantitative analysis were set to 3.125, 6.25, 12.5, 25, 50 and 100 nM, and His-labeled human CD3E (10 μg/mL) was coupled to Ni-NTA sensors.
For example, the experimental method for determining the kinetic constants and affinity equilibrium dissociation constants of the humanized antibodies was as described in Example 3.

His-labeled human CD3E [6] = target: T3, His-labeled human CD3E; test: BLI (Octet), His-labeled human CD3E on Ni-NTA sensors, antibody 3.125-100 nM
Experimental: as §2

[7] = target: T4, human CD3E (purchased from Acro Biosystems) (human, UniProt P07766 23-126); test: ELISA, plate coated with human CD3E
T4 construct: also called human CD3 antigen; human CD3E molecules
Experimental: A microtiter plate was coated with 100 μL of 0.1 μg/mL human CD3E (purchased from Acro Biosystems) overnight at room temperature. The coating solution was discarded, and the wells were blocked with skimmed milk dissolved in phosphate buffered saline (PBS) for 0.5 hours and washed with PBS containing 0.05% Tween-20 (PBST). Then the purified murine antibodies AP191, AP591 and AP831 against human CD3 were added with 50 μL per well and incubated for 1 h at room temperature. The wells were washed with 0.05% PBST. Then 50 μL of HRP-labeled goat anti-mouse IgG polyclonal antibody (purchased from Jackson Laboratory) was added per well as the detected antibody and incubated for 1 h at 37° C. The wells were washed three times with 0.05% PBST, added with TMB (100 μL/well) and developed at room temperature for 5 min. 0.2 M H₂SO₄ was added to terminate the reaction, 50 μL/well. Absorption values were read by a microplate reader at double wavelengths 450 nm/620 nm. Plotting was performed by software GraphPad Prism 6 with OD 450 nm/620 nm as the Y-axis and an antibody concentration as the X-axis.

T2 sequence (P07766 23-207): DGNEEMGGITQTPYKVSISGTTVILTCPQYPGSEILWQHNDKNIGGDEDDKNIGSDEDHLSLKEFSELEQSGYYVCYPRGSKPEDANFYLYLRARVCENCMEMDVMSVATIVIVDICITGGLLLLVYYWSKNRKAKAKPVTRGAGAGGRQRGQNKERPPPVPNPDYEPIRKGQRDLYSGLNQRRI
T4 sequence (P07766 23-126 limits assumed): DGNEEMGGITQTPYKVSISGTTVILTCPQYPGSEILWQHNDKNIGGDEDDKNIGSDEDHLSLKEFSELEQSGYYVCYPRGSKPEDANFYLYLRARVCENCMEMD
T3 sequence (P07766 23-126): as the sequence (P07766 23-126 limits assumed) above

Kd (His-labeled human CD3E [5]) | koff (His-labeled human CD3E [5]) | kon (His-labeled human CD3E [5]) | also measured | Binder
0.0196 nM | 1.45e-05 s⁻¹ | 741000 M⁻¹ s⁻¹ | EC50 [1]: 1.18 nM; EC50 (His-labeled human CD3E [2]): 0.00913 nM; EC50 of activating T cells (luciferase of NFAT RE reporter Jurkat T cells) [3]: 0.142 nM; EC50 [4]: 0.00755 nM | B1
 |  |  | Kd (His-labeled human CD3E [6]): 0.121 nM; koff (His-labeled human CD3E [6]): 9.73e-05 s⁻¹; kon (His-labeled human CD3E [6]): 802000 M⁻¹ s⁻¹; EC50 [1]: 2.74 nM; EC50 [7]: 0.0149 nM | B2
 |  |  | Kd (His-labeled human CD3E [6]): 0.0194 nM; koff (His-labeled human CD3E [6]): 1.04e-05 s⁻¹; kon (His-labeled human CD3E [6]): 539000 M⁻¹ s⁻¹; EC50 [1]: 8.91 nM; EC50 [7]: 0.0283 nM | B3
 |  |  | kon (His-labeled human CD3E [6]): 692000 M⁻¹ s⁻¹; EC50 [1]: 0.825 nM; EC50 [7]: 0.0404 nM | B4
 |  |  | EC50 [1]: 0.174 nM; EC50 (His-labeled human CD3E [2]): 0.00833 nM; EC50 [4]: 0.00483 nM | B5
0.116 nM | 2.97e-05 s⁻¹ | 256000 M⁻¹ s⁻¹ |  | B6
0.668 nM | 0.00017 s⁻¹ | 254000 M⁻¹ s⁻¹ |  | B7
2.77 nM | 0.000698 s⁻¹ | 252000 M⁻¹ s⁻¹ |  | B8
< 0.001 nM | < 1e-07 s⁻¹ | 51200 M⁻¹ s⁻¹ |  | B9
0.123 nM | 3.41e-05 s⁻¹ | 276000 M⁻¹ s⁻¹ |  | B10
0.169 nM | 4.26e-05 s⁻¹ | 253000 M⁻¹ s⁻¹ |  | B11
2.12 nM | 0.000369 s⁻¹ | 174000 M⁻¹ s⁻¹ |  | B12
1.45 nM | 0.000391 s⁻¹ | 270000 M⁻¹ s⁻¹ |  | B13
23.3 nM | 0.00119 s⁻¹ | 51200 M⁻¹ s⁻¹ |  | B14
0.677 nM | 0.000201 s⁻¹ | 296000 M⁻¹ s⁻¹ |  | B15
1.8 nM | 0.000318 s⁻¹ | 177000 M⁻¹ s⁻¹ |  | B16
182 nM | 0.00169 s⁻¹ | 9300 M⁻¹ s⁻¹ |  | B17
≤ 0.00264 nM | < 1e-07 s⁻¹ | 7300 M⁻¹ s⁻¹ |  | B18
